In publication PMC10165364, “Pathological variants in TOP3A cause distinct disorders of mitochondrial and nuclear genome stability”:

Molecular target: T1, TOP3A WT (Homo sapiens, UniProt Q13472 16-934)
T1 sequence: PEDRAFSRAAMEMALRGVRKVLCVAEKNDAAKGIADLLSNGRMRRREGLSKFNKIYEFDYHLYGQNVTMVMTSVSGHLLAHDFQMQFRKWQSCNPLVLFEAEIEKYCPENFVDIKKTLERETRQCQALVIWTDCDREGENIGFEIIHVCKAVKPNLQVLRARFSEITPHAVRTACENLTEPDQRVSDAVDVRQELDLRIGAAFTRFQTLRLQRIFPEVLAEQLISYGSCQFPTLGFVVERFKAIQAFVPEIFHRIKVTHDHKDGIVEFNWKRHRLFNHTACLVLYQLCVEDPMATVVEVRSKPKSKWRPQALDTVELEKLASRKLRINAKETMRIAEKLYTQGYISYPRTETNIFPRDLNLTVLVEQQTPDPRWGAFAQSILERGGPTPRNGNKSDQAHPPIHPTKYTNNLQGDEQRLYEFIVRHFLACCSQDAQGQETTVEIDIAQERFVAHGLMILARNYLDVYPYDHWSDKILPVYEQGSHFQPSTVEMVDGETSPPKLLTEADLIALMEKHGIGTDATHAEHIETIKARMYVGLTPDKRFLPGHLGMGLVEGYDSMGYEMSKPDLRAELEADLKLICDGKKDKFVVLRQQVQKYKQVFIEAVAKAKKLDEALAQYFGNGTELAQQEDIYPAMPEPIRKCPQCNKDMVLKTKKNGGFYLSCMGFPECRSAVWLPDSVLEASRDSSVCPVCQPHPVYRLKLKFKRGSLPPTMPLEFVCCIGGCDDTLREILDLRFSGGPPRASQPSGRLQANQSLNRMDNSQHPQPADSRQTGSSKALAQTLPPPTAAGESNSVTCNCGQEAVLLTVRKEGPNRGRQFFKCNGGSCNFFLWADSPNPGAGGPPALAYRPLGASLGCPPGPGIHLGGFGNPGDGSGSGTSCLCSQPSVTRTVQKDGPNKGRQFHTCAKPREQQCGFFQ
Assay: EMSA; two shifted bands (two TOP3A molecules); 25 mM HEPES pH 7.5, 70 mM NaCl, 100 ug/ml BSA, 1 mM DTT, 10% glycerol; 10 fmol oligo, 0-250 fmol TOP3A in 20 ul; 37 C 15 min, then ice; 8% native PAGE in 0.5x TBE at 4 C
Settings: protein: recombinant; tags: N-terminal TEV-cleavable 6xHis, cleaved; label: 5' 32P; single strand

B1: EMSA substrate 80-mer (ssDNA)
DNA: ACCACATTAACAACATAAAACCCTCATTCACACGAGAAAACACCCTCATGTTCATACACCTATCCCCCATTCTCCTCCTA
B1: binds.
